Assay results from EP4480965A1, “TRANSFERRIN RECEPTOR-BINDING MOLECULES, CONJUGATES THEREOF AND THEIR USES TO PREVENT OR TREAT CNS DISEASES” (Vect-Horus, priority 2023, dated 2024).

Tested on: murine SOD1 mRNA
Assay: siRNA biodistribution and SOD1 mRNA by in situ hybridization (miRNAScope / RNAScope)
Format: in vivo, C57Bl/6 mice
Settings: single ICV dose 100 µg, seven days
Protocol: For ISH bioanalysis, 20 µm sagittal cryosections of left brain hemispheres or coronal sections of spinal cords were prepared using a cryostat at -20°C (Leica), collected onto superfrost plus slides and stored at - 80°C until processing. For RNAScope® or miRNAScope® assays, slides containing cyosections were immediately transferred and fixed in 10% Neutral buffered formalin (NBF) for 1h30 at RT. Fluorescent RNAscope® assay for mRNAs detection or chromogenic miRNAscope® assay for siRNA detection were performed according to the manufacter's protocols (Advanced Cell Diagnostics, ACD). […] This distribution correlates with a broad and potent SOD1 mRNA knock-down, as assessed using RNAScope® (Figure 29B and 29E, right panels). […]
For ISH bioanalysis, 20 µm sagittal cryosections of left brain hemispheres or coronal sections of spinal cords were prepared using a cryostat at -20°C (Leica), collected onto superfrost plus slides and stored at - 80°C until processing. […] This distribution correlates with a broad TfR-dependent and potent SOD1 mRNA knock-down, as assessed using RNAScope® (Figure 31C and 31I, right panels).
An example of cleavable linker was evaluated and compared to the C5-hFc-siSOD1m-5'VP for its biodistribution in CNS tissues following systemic administration. […]

B1: C5-siSOD1m-5'VP: TfR-binding VHH-siRNA conjugate wherein VHH is C5 (conjugate)
VHH: EVQLVESGGGVVQPGGSLKLSCVASGTDFSINFIRWYRQAPGKQREFVAGFTATGNTNYADSMKGRFTISRDNTKNAVYLQIDSLKPEDTAVYYCYMLDKWGQGTQVTVSSAAAEQKLISEEDLNGAAHHHHHHGS
- biodistribution of the siSOD1m AS strand in brain and spinal cord: broad biodistribution
